Experimental data: PMC2975895

Tests used:
[1] = molecular target: AxxA-SurR (SurR C23A C26A variant) (Pyrococcus furiosus); test: SEC
[2] = molecular target: AxxA-SurR (SurR C23A C26A variant) (Pyrococcus furiosus); test: crystal structure
[3] = molecular target: SurR oxidized with diamide or colloidal S^0 (Pyrococcus furiosus); test: SEC

Substance | stoichiometry N [1] | stoichiometry N [2] | stoichiometry N [3]
AxxA-SurR (SurR C23A C26A variant) (natural protein) | 2 | 2 | –
SurR oxidized with diamide or colloidal S^0 (natural protein) | – | – | 2
